Data published in patent publication US20110016537A1, “Cellular model of tauopathies for lead identification and drug discovery” (Georg-August-Universitat Gottingen Stifung offentl, priority 2003, published 2011).

What was measured:
[1] = biological target: tau mutant M123 (triple mutant, M1+M2+M3) with GFP fused at the N-terminal (human) (UniProt P10636); test: immunocytochemistry, SHSY5Y cells 36 h after transfection
[2] = biological target: wild-type human tau 441 with GFP fused at the N-terminal (human) (UniProt P10636); test: as above
wild-type human tau 441 with GFP fused at the N-terminal (human), sequence (P10636 other isoform, or with tags, fused parts or gaps): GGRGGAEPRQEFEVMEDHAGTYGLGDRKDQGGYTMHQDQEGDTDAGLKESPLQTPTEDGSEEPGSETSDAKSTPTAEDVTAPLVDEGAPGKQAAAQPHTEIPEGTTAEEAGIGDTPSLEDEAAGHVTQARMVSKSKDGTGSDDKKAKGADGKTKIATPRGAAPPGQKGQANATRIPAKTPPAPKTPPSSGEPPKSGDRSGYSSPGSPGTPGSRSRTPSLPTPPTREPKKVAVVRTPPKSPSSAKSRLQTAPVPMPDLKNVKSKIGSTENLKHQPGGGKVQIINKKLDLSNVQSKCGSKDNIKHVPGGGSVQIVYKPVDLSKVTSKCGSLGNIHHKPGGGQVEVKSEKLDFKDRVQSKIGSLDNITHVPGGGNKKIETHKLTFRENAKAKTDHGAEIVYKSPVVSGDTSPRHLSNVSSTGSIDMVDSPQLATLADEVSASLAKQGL

[3] = biological target: tau mutant M123 (triple mutant, M1+M2+M3) with GFP fused at the N-terminal (human) (UniProt P10636); test: immunocytochemistry, transfected SHSY5Y cells

tau mutant M123 (triple mutant, M1+M2+M3) with GFP fused at the N-terminal (human), sequence (P10636 other isoform, or with tags, fused parts or gaps mutant): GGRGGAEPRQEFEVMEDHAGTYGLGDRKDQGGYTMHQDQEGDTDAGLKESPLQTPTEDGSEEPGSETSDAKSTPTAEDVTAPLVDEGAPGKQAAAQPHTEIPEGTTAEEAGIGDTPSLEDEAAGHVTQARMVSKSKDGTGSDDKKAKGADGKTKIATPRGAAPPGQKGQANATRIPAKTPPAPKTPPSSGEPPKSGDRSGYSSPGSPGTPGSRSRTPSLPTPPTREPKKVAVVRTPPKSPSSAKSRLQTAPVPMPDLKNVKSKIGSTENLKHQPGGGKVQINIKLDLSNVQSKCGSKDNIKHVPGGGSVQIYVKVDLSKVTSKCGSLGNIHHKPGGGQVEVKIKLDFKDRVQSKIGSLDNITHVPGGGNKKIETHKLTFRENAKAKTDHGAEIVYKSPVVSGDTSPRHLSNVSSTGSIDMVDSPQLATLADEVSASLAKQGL

percentage of transfected cells with AT8 immunolabeling [1] [%]	percentage of transfected cells with AT8 immunolabeling [2] [%]	percentage of transfected cells AT180 immunopositive [3] [%]	Substance
83.2	9.17	–	AT8 antibody (S202/T205 specific)
–	–	22.1	AT180 antibody (phosphoepitope T231)
